From article PMC3060787
Like-named read-outs stand apart in the source and are kept apart here.

Columns and labels:
Assay in all cases: smFRET
Taq MutS(C42A,T469C)-Cy3 [1] = target: T1, Taq MutS(C42A,T469C)-Cy3 (Thermus aquaticus, UniProt Q56215 1-811, C42A;T469C)
T1 sequence: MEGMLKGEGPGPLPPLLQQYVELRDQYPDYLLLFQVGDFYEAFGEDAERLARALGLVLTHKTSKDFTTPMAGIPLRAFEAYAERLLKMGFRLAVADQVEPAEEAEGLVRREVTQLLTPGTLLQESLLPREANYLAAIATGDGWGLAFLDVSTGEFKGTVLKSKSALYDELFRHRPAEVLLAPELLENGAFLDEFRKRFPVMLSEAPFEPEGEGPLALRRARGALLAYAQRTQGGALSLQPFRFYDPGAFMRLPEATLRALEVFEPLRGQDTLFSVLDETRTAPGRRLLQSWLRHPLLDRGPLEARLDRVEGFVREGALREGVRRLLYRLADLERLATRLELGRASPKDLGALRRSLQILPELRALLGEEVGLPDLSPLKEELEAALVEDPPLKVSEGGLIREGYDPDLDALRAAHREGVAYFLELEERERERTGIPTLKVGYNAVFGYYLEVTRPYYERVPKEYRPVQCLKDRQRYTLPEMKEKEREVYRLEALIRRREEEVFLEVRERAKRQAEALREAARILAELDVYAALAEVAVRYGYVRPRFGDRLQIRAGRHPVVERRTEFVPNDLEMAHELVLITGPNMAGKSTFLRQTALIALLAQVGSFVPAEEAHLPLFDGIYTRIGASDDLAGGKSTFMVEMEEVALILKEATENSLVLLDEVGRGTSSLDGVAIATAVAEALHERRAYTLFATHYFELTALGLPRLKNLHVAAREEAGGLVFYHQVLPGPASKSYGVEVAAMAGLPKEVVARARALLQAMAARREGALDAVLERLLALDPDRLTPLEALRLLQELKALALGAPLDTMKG

Taq MutS(C42A,T469C)-Cy3 [2] = target: T1, Taq MutS(C42A,T469C)-Cy3; remark: listed apart in the source
Taq MutS(C42A,T469C)-Cy3 [3] = target: T1, Taq MutS(C42A,T469C)-Cy3; remark: listed apart in the source
Taq MutS(C42A,T469C)-Cy3 [4] = target: T1, Taq MutS(C42A,T469C)-Cy3; remark: listed apart in the source

B1: 74 bp duplex, both ends blocked (dsDNA)
DNA 1: ATTCAGCTGTACCCAATTCACTCTACGACGAGGCGTCGCTAGCGTCGCATCCTGCTGTAAGTTTCATGTCCACC
DNA 2: GGTGGACATGAAACTTACAGCAGGATGCGACGCTAGCGACGCCTCGTCGTAGAGTGAATTGGGTACAGCTGAAT
modifications: amino-C6 dT (Cy5 site)
- Kd (Taq MutS(C42A,T469C)-Cy3 [1]): 128 ± 12 nM

B2: +dT mismatch DNA (74/75 nt), both ends blocked (dsDNA)
DNA 1: ATTCAGCTGTACCCAATTCACTCTACGACGAGGCGTCGCTAGCGTCGCATCCTGCTGTAAGTTTCATGTCCACC
DNA 2: GGTGGACATGAAACTTACAGCAGGATGCGACGCTAGCGTACGCCTCGTCGTAGAGTGAATTGGGTACAGCTGAAT
modifications: amino-C6 dT (Cy5 site, nt 45 from 5' biotin)
- Kd (Taq MutS(C42A,T469C)-Cy3 [2]): 16.2 ± 2.1 nM

B3: +dT mismatch DNA with dT10 ssDNA tail (74/85 nt) (dsDNA)
DNA 1: ATTCAGCTGTACCCAATTCACTCTACGACGAGGCGTCGCTAGCGTCGCATCCTGCTGTAAGTTTCATGTCCACC
DNA 2: TTTTTTTTTTGGTGGACATGAAACTTACAGCAGGATGCGACGCTAGCGTACGCCTCGTCGTAGAGTGAATTGGGTACAGCTGAAT
modifications: amino-C6 dT (Cy5 site)
- binding result (Taq MutS(C42A,T469C)-Cy3 [3]): binds

B4: 100 bp duplex (dsDNA)
DNA 1: GTTACCGATACGATACGAATAGGCATATCTGCACGTTTCTCACGAGGCGCCGCTAGACTGATCTGGAGCTTAATTGCCTGCCGGAGCTAAAGACGTTCCA
DNA 2: TGGAACGTCTTTAGCTCCGGCAGGCAATTAAGCTCCAGATCAGTCTAGCGGCGCCTCGTGAGAAACGTGCAGATATGCCTATTCGTATCGTATCGGTAAC
modifications: amino-C6 dT (Cy5 site)
- binding result (Taq MutS(C42A,T469C)-Cy3 [4]): binds

B5: 100 bp +dT mismatch DNA (100/101 nt) (dsDNA)
DNA 1: GTTACCGATACGATACGAATAGGCATATCTGCACGTTTCTCACGAGGCGCCGCTAGACTGATCTGGAGCTTAATTGCCTGCCGGAGCTAAAGACGTTCCA
DNA 2: TGGAACGTCTTTAGCTCCGGCAGGCAATTAAGCTCCAGATCAGTCTAGCGTGCGCCTCGTGAGAAACGTGCAGATATGCCTATTCGTATCGTATCGGTAAC
modifications: amino-C6 dT (Cy5 site)
- binding result (Taq MutS(C42A,T469C)-Cy3 [4]): binds
